How the values were obtained:
Experiment in all cases: EMSA
Details in all cases: tetrahydrofuran abasic residue (F); EMSA: 50 mM Tris-HCl pH 8.0, 100 mM NaCl, 1 mM DTT, 50 nM FAM-AP-DNA, 4 °C, 30 min; 5% native PAG. Fluorescence: 50 mM HEPES pH 8.0, 100 mM NaCl, 4 mM DTT …
[1] = tested on: APE1 (full-length) (Homo sapiens)
[2] = tested on: APE1NΔ61 (Homo sapiens)
[3] = tested on: APE1NΔ35 (Homo sapiens)

With “AP-DNA (32-mer duplex with synthetic abasic site)” the K half [1] was 120 nM, the K half [2] was 210 nM and the K half [3] was 200 nM.

From publication PMC7247576
